In article PMC4510645, “Discovery of intramolecular trans-sialidases in human gut microbiota suggests novel mechanisms of mucosal adaptation” (Nature Communications, 2015):
“Also recorded” adds a separate entry of the source.

Columns and labels:
RgNanH [1] = molecular target: T1, RgNanH (Mediterraneibacter gnavus (Ruminococcus gnavus), UniProt A7B557); assay: Hydrolysis of sialic acid from glycoproteins monitored by 1H NMR; assay type: biochemical, Ruminococcus gnavus ATCC 29149; details: glycoprotein 1 mg ml^−1, 1 nM enzyme, 37 °C, pH 6.5, overnight
T1 sequence (A7B557 26-723): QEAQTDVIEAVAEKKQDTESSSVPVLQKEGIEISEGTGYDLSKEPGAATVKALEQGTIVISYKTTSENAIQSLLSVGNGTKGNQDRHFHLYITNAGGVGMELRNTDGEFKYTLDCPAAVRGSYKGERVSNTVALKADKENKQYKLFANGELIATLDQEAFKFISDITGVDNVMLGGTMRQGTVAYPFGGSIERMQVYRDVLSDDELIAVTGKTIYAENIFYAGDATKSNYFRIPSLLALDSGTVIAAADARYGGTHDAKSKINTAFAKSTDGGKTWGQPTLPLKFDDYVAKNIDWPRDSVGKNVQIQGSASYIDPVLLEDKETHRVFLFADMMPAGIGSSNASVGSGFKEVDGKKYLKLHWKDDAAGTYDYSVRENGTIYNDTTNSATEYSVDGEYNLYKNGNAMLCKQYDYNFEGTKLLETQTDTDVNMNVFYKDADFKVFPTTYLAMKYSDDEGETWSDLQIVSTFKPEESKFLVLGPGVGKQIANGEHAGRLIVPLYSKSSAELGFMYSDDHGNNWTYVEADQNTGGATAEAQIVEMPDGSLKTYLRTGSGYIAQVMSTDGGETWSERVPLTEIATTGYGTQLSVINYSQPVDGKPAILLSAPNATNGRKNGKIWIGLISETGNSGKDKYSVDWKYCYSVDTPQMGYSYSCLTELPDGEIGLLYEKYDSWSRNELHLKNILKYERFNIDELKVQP
Method: The ability of RgNanH to hydrolyse sialic acid from glycoproteins was investigated by incubation of the enzyme with human α-1-acid glycoprotein (AGP) and fetuin (Fet) both of which are known to contain α2-3 sialyl linkages, while asialo-Fet was also included as a control.
For specificity tests against sialylated oligosaccharides (1 mM) and glycoproteins (1 mg ml^−1), 1 nM of enzyme was incubated with the substrate at 37 °C, pH 6.5, overnight.
Extracts (400 μl) were mixed with 200 μl of D2O and 20 μl of a solution of D2O containing 1 mM of TSP (sodium 3-(trimethylsilyl)-propionate-d4). Samples (500 μl) were transferred into a 5-mm NMR tube for spectral acquisition. The ^1H NMR spectra were recorded at 600 MHz on a Bruker Avance spectrometer (Bruker BioSpin GmbH, Rheinstetten, Germany) running Topspin 2.0 software, and were fitted with a cryoprobe and a 60-slot autosampler. Each ^1H NMR spectrum was acquired with 128 scans, a spectral width of 8,012.8 Hz, an acquisition time of 2.04 s and a relaxation delay of 2.0 s. The ‘noesypr1d' presaturation sequence was used to suppress the residual water signal with a low-power selective irradiation at the water frequency during the recycle delay and a mixing time of 100 ms. Spectra were transformed with a 0.3-Hz line broadening, manually phased, baseline corrected and referenced by setting the TSP methyl signal to 0 p.p.m.

R. gnavus ATCC 29149 = system: R. gnavus ATCC 29149; set-up: method as in PMID 24204617; details: cited from earlier work
RgNanH [2] = molecular target: T1, RgNanH; assay: Inhibition of RgNanH activity against 4MU-Neu5Ac by neuraminidase inhibitors; assay type: biochemical, Ruminococcus gnavus ATCC 29149; details: 4MU-Neu5Ac 0.51 mM, 1 nM enzyme; Neu5Ac 0-0.3 mM, Lac 0-1.5 mM; pH 6.5, 37 °C
Method: Figure 1 Kinetic analysis of the hydrolysis of sialylated substrates by RgNanH in presence or absence of inhibitors. Substrate (a) 4MU-Neu5Ac or (b) PNP-Neu5Ac was incubated with RgNanH ([…] and 0.43 nM, respectively) at 37 °C, pH 6.5 and the release of product measured using a plate reader. (c) Inhibition of RgNanH (1.00 nM) incubated with 4MU-Neu5Ac (0.51 mM) by zanamivir (●), Neu5Ac2en (▪), siastatin B (▴) and OC (♦), the rates are normalized to a % of the uninhibited rate. [I] is the inhibitor concentration. (d) 3′SL was incubated with RgNanH (2.25 nM) and the release of product measured by HPAEC-PAD. Experiments were done at least in duplicate (usually triplicate) and the error bars show the s.e.m.
The purified enzymes were incubated with the substrate in buffer made from 20 mM Na2HPO4 and 20 mM NaH2PO4 adjusted to pH 6.5 containing 1 mg ml^−1 BSA at 37 °C unless otherwise stated. For 4MU-Neu5Ac, the progression of the reaction was monitored by the release of the MU using a 96-well plate reader (BMG Labtech, Ortenberg, Germany) using fluorescence with an excitation at 340 nm and an emission at 420 nm. For determining the optimal temperature, the assay was carried out in 20 mM PBS at pH 7.4. For determining the optimal pH, the assay was carried out at 37 °C using buffer made from 20 mM Na2HPO4 and 20 mM NaH2PO4 in varying proportions to obtain the desired pH. PNP release from PNP-Neu5Ac was monitored in a similar way measuring absorbance at 405 nm every 60 s. For 3′SL, the reaction was monitored by HPAEC-PAD. An aliquot of the reaction was removed from the main reaction volume at the reaction stopped by boiling for 20 min, the enzyme was then removed by centrifugation at 17,000g for 10 min and filtration with a 0.2-μm filter (Millipore, Billerica, USA). The sugars were separated by HPAEC with an isocratic gradient of 100 mM NaOH and 100 mM NaAC at 1 ml min^−1 on a CarboPac PA1 protected with a guard column and detected using PAD on a Dionex ICS5000 system (Thermo Scientific, Hemel Hempstead, UK). The column was cleaned with 10 ml of 500 mM NaOH and 500 mM NaAc, and the column was re-equilibrated with 100 mM NaOH and 100 mM NaAc. An internal standard of fucose was used to quantify the results. […]

[3] = Spontaneous interconversion of 2,7-anhydro-Neu5Ac and Neu5Ac by 1H NMR; assay type: physicochemical; details: up to 24 h at 37 °C
Method: The products of the reaction were thus further monitored by ^1H nuclear magnetic resonance (NMR). […] (Fig. 3). These peaks are characteristic of 2,7-anhydro-α-N-acetylneuraminic acid (2,7-anhydro-Neu5Ac) and arise from the protons in positions 6 and 7 (Fig. 3a). Peaks corresponding to 2,7-anhydro-Neu5Ac were observed when RgNanH was incubated in presence of 4MU-Neu5Ac (Fig. 3a) or 3′SL (Fig. 3b). […] The signals of 2,7-anhydro-Neu5Ac and their chemical shifts are shown in Supplementary Table 1. This product was absent in control experiments using A. muciniphila sialidases (AkmNan0625 and AkmNan1835) or in absence of enzyme, confirming the specificity of the enzymatic reaction (Supplementary Fig. 5).
Extracts (400 μl) were mixed with 200 μl of D2O and 20 μl of a solution of D2O containing 1 mM of TSP (sodium 3-(trimethylsilyl)-propionate-d4). Samples (500 μl) were transferred into a 5-mm NMR tube for spectral acquisition. The ^1H NMR spectra were recorded at 600 MHz on a Bruker Avance spectrometer (Bruker BioSpin GmbH, Rheinstetten, Germany) running Topspin 2.0 software, and were fitted with a cryoprobe and a 60-slot autosampler. Each ^1H NMR spectrum was acquired with 128 scans, a spectral width of 8,012.8 Hz, an acquisition time of 2.04 s and a relaxation delay of 2.0 s. […]

asialo-Fet: asialo-fetuin, included as a control
activity of RgNanH against glycoprotein (2,7-anhydro-Neu5Ac peaks by 1H NMR) (RgNanH [1]): no change

Fet: fetuin, glycoprotein known to contain α2-3 sialyl linkages
activity of RgNanH against glycoprotein (2,7-anhydro-Neu5Ac peaks by 1H NMR) (RgNanH [1]): showed activity; also recorded: substrates

CC(=O)N[C@H]1[C@H]([C@H](O)[C@H](O)CO)OC(O)(C(=O)O)C[C@@H]1O (some centres unmarked) [Neu5Ac, sialic acid]
ability of the bacteria to grow on the substrate (R. gnavus ATCC 29149; R. gnavus ATCC 29149): not
growth on sole carbon source (R. gnavus ATCC 29149; R. gnavus ATCC 29149 and E1): could not grow
Inhibition of RgNanH (RgNanH [2]): not inhibited
spontaneous conversion between 2,7-anhydro-Neu5Ac and Neu5Ac [3]: no evidence of spontaneous conversion

AGP: human α-1-acid glycoprotein, known to contain α2-3 sialyl linkages
activity of RgNanH against glycoprotein (2,7-anhydro-Neu5Ac peaks by 1H NMR) (RgNanH [1]): showed activity
activity of RgNanH against glycoprotein (2,7-anhydro-Neu5Ac peaks by 1H NMR) (RgNanH [1]; listed as α-1-AGP): substrates
